# B1: HER2 VHH-FC1 fusion protein 1-C09 (Fc fusion)
# chain: DVQLVESGGGLVQPGGSLRLSCEASGLTFRRYHFSWYRQPPGKERELVAVISDTGSTTNYTDSVKGRFTISRDLARNTVFLQLNSLKPDDTAVYYCNAKWPIIAADWWGQGTQVTVSSEPKSSDKTHTCPPCPAPEFEGGPSVFLFPPKPKDTLMISRTPEVTCVVVDVSHEDPEVKFNWYVDGVEVHNAKTKPREEQYNSTYRVVSVLTVLHQDWLNGKEYKCKVSNKALPASIEKTISKAKGQPREPQVYTLPPSRDELTKNQVSLTCLVKGFYPSDIAVEWESNGQPENNYKTTPPVLDSDGSFFLYSKLTVDKSRWQQGNVFSCSVMHEALHNHYTQKSLSLSPGK
# notes: 25; also called 1-C09-FC1; 1-C9-FC1
# B2: HER2 VHH-FC1 fusion protein 1-C10 (Fc fusion)
# chain: QVQLVESGGDLVQPGGSLRLSCATSGLTFRRYELKWYRQAPGKERELVAGITPASGSRNYADSVKGRFTISRDDAKMTVYLQMNSLEPEDTAVYYCNAYWMIPQHIENNYWGKGTLVTVSSEPKSSDKTHTCPPCPAPEFEGGPSVFLFPPKPKDTLMISRTPEVTCVVVDVSHEDPEVKFNWYVDGVEVHNAKTKPREEQYNSTYRVVSVLTVLHQDWLNGKEYKCKVSNKALPASIEKTISKAKGQPREPQVYTLPPSRDELTKNQVSLTCLVKGFYPSDIAVEWESNGQPENNYKTTPPVLDSDGSFFLYSKLTVDKSRWQQGNVFSCSVMHEALHNHYTQKSLSLSPGK
# notes: 25; also called 1-C10-FC1; chimeric nanobody 1-C10
# B3: HER2 VHH-FC1 fusion protein 2-C07 (Fc fusion)
# chain: AVQLVESGGGLVQPGGSLRLSCAASGLTFMRYDINWYRQAPGKERELVAALDSSSGRTNYADFTEGRFTISRNNAKNSAYLQMNNLKPEDTASYYCNAQWKRIGADYWGQGTQVTVFSEPKSSDKTHTCPPCPAPEFEGGPSVFLFPPKPKDTLMISRTPEVTCVVVDVSHEDPEVKFNWYVDGVEVHNAKTKPREEQYNSTYRVVSVLTVLHQDWLNGKEYKCKVSNKALPASIEKTISKAKGQPREPQVYTLPPSRDELTKNQVSLTCLVKGFYPSDIAVEWESNGQPENNYKTTPPVLDSDGSFFLYSKLTVDKSRWQQGNVFSCSVMHEALHNHYTQKSLSLSPGK
# notes: 25; also called 2-C07-FC1; chimeric nanobody 2-C07
# B4: HER2 VHH-FC1 fusion protein 1-G07 (Fc fusion)
# chain: QVQLVESGGGKAQPGGSLRLSCVASRITFRHYDLSWYRQAPGQERELVATVTNGGVITYADSVKGRFTISRDNAKNTVQLQMNNLKPEDTAVYYCNAVWVYLQRLTQNKKENDYWGPGTQVTVSSEPKSSDKTHTCPPCPAPEFEGGPSVFLFPPKPKDTLMISRTPEVTCVVVDVSHEDPEVKFNWYVDGVEVHNAKTKPREEQYNSTYRVVSVLTVLHQDWLNGKEYKCKVSNKALPASIEKTISKAKGQPREPQVYTLPPSRDELTKNQVSLTCLVKGFYPSDIAVEWESNGQPENNYKTTPPVLDSDGSFFLYSKLTVDKSRWQQGNVFSCSVMHEALHNHYTQKSLSLSPGK
# notes: 25; also called 1-G07-FC1; chimeric nanobody 1-G07
# B5: HER2 VHH-FC1 fusion protein 2-F03 (Fc fusion)
# chain: EVQLVESGGGLVQPGGSLRLSCAASGLTFRRYHMSWYRQAPGKERELVAVISDTGTTNYAESVKGRFTISRDNSRSTVFLQLNSLKPDDTAVYYCNGRWPAVAADWWGQGTQVTVSSEPKSSDKTHTCPPCPAPEFEGGPSVFLFPPKPKDTLMISRTPEVTCVVVDVSHEDPEVKFNWYVDGVEVHNAKTKPREEQYNSTYRVVSVLTVLHQDWLNGKEYKCKVSNKALPASIEKTISKAKGQPREPQVYTLPPSRDELTKNQVSLTCLVKGFYPSDIAVEWESNGQPENNYKTTPPVLDSDGSFFLYSKLTVDKSRWQQGNVFSCSVMHEALHNHYTQKSLSLSPGK
# notes: 25; also called 2-F03-FC1; chimeric nanobody 2-F03
# B6: HER2 VHH-FC1 fusion protein 1-B05 (Fc fusion)
# chain: AVQLVESGGGPGGSLRLSCAASGITFFRHTLGWYRQAPGKQRELVASITGGESTNYADSVKSRFTISRDNAKNMVFLQMNSLKPEDTALYYCNSKWDAAGVEFWGKGTLVTVSSEPKSSDKTHTCPPCPAPEFEGGPSVFLFPPKPKDTLMISRTPEVTCVVVDVSHEDPEVKFNWYVDGVEVHNAKTKPREEQYNSTYRVVSVLTVLHQDWLNGKEYKCKVSNKALPASIEKTISKAKGQPREPQVYTLPPSRDELTKNQVSLTCLVKGFYPSDIAVEWESNGQPENNYKTTPPVLDSDGSFFLYSKLTVDKSRWQQGNVFSCSVMHEALHNHYTQKSLSLSPGK
# notes: 25; also called 1-B05-FC1; chimeric nanobody 1-B05
# Molecular target: T1, human HER2 His6 protein, extracellular domain (NCBI NP_004439.2, Met 1-Thr 652), C-terminal polyhistidine tag (human, UniProt P04626 23-652)
# T1 construct: range 1-652; The stated range includes Met 1; also called HER2-ECD; human HER2-ECD
# Assay: ELISA, HER2 protein coated at 1 µg/mL, detection with HRP-labelled protein A
# Procedure: (§1) HER2 protein was diluted to 1 μg/mL with coating solution, coated onto ELISA plate, 100 μL/well, 4° C., overnight. The excess antigens were washed off. The plate was blocked with 1% BSA at room temperature for 2 hours, then 5-fold gradient diluted monoclonal antibodies were added at 100 μL/well, and the plate was incubated at room temperature for 1 hour; the unbound antibodies were washed off, and suitable concentration of horseradish peroxidase labeled Staphylococcus protein A was added at 100 μL/well, and the plate was incubated at room temperature for 0.5 hours. The unbound secondary antibody was washed off. TMB colorimetric solution was added and reacted for about 15 minutes. 1M HCl at 50 μL/well was added to terminate the colorimetric reaction, then the absorbance was measured at 450 nm and the data was analyzed.
row,EC50 [ng/mL],Binder
1,10,B1
2,17,B2
3,5,B3
4,10,B4
5,4,B5
6,5,B6

# Molecular target: T2, HER2 receptor on the surface of NCI-N87 cells (human, UniProt P04626 23-1255)
# T2 construct: whole, on cells; also called HER2 on tumor cell surface
# Assay: flow cytometry on NCI-N87 cells, PE-labelled secondary antibody
# Procedure: (§2) HER2 overexpressing gastric cancer cell line NCI-N87 was used as the target cell. 100 μL of the test antibody diluted in a 10 folds gradient was used as the primary antibody. It was mixed with 1×10⁵ tumor cells suspended in 100 μL RPMI-1640 serum-free medium at final concentrations of 10 μg/mL, 1 μg/mL, and 0.1 μg/mL. The cells were then incubated at 4° C. for 1 hour, washed twice with PBS to remove unbound primary antibodies, and incubated with 200 μL, 2 μg/mL, PE labeled secondary antibodies at 4° C. for 30 minutes. The cells were washed twice with PBS to remove unbound secondary antibodies. Finally, the cells were resuspended in 200 μL PBS and analyzed by flow cytometry to determine the binding affinity of the test antibody to HER2 on the corresponding cell surface.
row,EC50 [µg/mL],Binder
1,0.109,B1
2,0.209,B2
3,0.131,B3
4,0.199,B4
5,0.13,B5
6,0.144,B6

# Molecular target: T1, human HER2 His6 protein, extracellular …
# Assay: called SPR, run on ForteBio OCTET R2; antibody captured on Protein A sensor, HER2 protein at 500-31.3 nM as analyte, 25 °C
# Procedure: (§3) […] detection was performed and Protein A sensor was used to solidify the antibody at a curing height of approximately […]. […] Affinity detection: equilibrium for 60 seconds, binding for 180 seconds, dissociation for 180 seconds, detection at 25° C., and kinetic characterization analysis was performed using the ForteBio OCTET R2 system.
row,Kd [nM],Binder
1,12.1,B1
2,4.61,B2
3,7.42,B3
4,23.2,B5
5,8.9,B6

# Molecular target: T2, HER2 receptor on the surface of NCI-N87 …
# Assay: flow cytometry on NCI-N87 cells, PE-labelled secondary antibody
# Remark: another data set of the same source
# Procedure: as §2
EC50 [nM],Max MFI,Binder
1.39,269000,B1
2.64,240000,B2
1.68,241000,B3
2.48,250000,B4
1.67,234000,B5
1.86,245000,B6

# Molecular target: T1, human HER2 His6 protein, extracellular …
# Assay: ELISA, HER2 protein coated at 1 µg/mL, detection with HRP-labelled protein A, OD 450 nm
# Procedure: as §1
row,EC50 [nM],Binder
1,0.125,B1
2,0.22,B2
3,0.07,B3
4,0.128,B4
5,0.05,B5
6,0.069,B6

# Molecular target: T1, human HER2 His6 protein, extracellular …
# Assay: ForteBio OCTET R2, antibody captured on Protein A sensor, HER2 protein in solution, 25 °C
# Procedure: as §3
koff [s⁻¹],kon [M⁻¹ s⁻¹],Binder
0.0118,974000,B1
0.001,217000,B2
0.00251,338000,B3
0.0108,466000,B5
0.0108,1.22e+06,B6

# Reference: patent US20260151496A1 (FUDAN UNIVERSITY, published 2026)
